{"source": "paper PMC10711433", "about": "“The forkhead DNA-binding domain binds specific G2-rich RNA sequences”", "key": {"FOXL2": {"target": "T1, FOXL2 (Homo sapiens, UniProt P58012 1-376)", "T1 sequence": "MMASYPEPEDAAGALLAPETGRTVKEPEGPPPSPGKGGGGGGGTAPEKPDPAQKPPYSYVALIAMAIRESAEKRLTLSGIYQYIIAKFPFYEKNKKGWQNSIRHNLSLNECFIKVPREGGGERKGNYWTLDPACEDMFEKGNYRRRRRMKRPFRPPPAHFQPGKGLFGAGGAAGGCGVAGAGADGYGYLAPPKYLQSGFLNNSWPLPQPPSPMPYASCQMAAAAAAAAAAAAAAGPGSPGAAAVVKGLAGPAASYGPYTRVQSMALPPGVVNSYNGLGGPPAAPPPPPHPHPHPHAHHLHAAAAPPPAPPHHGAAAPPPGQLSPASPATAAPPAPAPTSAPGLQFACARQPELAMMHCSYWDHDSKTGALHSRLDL", "experiment": "pulldown; 37 C; 10 mM HEPES, 140 mM KCl, 25 mM NaCl, 1 mM MgCl2, 0.1 mM CaCl2; equimolar mix, tRNA", "conditions": "tags: His-SUMO, cleaved"}, "FOXL2 C134W": {"target": "T2, FOXL2 C134W (Homo sapiens, UniProt P58012 1-376, C134W)", "T2 sequence": "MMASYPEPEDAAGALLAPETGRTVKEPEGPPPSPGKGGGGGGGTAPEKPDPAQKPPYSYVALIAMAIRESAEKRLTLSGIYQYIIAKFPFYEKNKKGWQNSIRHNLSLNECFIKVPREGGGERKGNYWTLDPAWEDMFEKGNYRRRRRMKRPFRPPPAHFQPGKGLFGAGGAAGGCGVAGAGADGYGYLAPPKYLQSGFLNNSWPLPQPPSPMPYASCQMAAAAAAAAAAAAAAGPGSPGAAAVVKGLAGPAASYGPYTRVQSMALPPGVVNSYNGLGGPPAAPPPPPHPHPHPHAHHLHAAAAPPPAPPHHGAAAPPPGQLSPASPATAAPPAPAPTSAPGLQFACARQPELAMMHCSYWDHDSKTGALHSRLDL", "experiment": "pulldown; 37 C; 10 mM HEPES, 140 mM KCl, 25 mM NaCl, 1 mM MgCl2, 0.1 mM CaCl2; equimolar mix, tRNA", "conditions": "tags: His-SUMO, cleaved"}, "FOXL2 wt (recombinant) [1]": {"target": "T3, FOXL2 wt (recombinant) (UniProt P58012 1-376)", "T3 sequence": "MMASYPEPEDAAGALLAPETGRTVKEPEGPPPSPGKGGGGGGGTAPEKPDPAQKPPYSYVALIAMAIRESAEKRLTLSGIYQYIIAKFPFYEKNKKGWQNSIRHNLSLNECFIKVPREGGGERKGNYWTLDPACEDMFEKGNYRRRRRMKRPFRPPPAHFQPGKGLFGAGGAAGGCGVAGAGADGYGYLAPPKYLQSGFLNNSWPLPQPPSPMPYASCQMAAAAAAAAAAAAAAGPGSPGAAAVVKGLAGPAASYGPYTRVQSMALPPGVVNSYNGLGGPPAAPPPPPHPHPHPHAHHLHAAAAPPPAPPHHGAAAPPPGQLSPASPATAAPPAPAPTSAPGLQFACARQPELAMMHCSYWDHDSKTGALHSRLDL", "experiment": "pull-down competition + HTS; 140 mM LiCl, no K+/Na+; 10 mM HEPES (pH 7.5), 140 mM KCl, 25 mM NaCl, 1 mM MgCl2, 0.1 mM CaCl2, 0.001% IGEPAL, 100 nM yeast tRNA, 50 nM total aptamers, 37 C, 30 min; Li+ variant: 140 mM LiCl replaces KCl/NaCl", "conditions": "protein: recombinant; tags: His-SUMO tag cleaved; putative two-tier intramolecular G4"}, "FOXL2 C134W (mutFOXL2) [2]": {"target": "T4, FOXL2 C134W (mutFOXL2) (UniProt P58012 1-376, C134W)", "T4 sequence": "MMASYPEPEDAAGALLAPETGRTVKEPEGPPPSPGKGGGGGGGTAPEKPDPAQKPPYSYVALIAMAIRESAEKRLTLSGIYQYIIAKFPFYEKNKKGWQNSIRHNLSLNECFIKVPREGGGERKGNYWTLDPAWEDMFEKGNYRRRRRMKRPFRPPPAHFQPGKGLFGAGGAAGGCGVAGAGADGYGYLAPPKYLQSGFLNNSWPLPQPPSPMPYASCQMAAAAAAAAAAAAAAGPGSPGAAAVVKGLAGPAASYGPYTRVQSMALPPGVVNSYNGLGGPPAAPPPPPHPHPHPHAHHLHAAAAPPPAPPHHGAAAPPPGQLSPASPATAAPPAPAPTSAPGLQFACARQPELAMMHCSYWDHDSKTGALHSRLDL", "experiment": "pull-down competition + HTS; K+/Na+ buffer, tRNA competitor; 10 mM HEPES (pH 7.5), 140 mM KCl, 25 mM NaCl, 1 mM MgCl2, 0.1 mM CaCl2, 0.001% IGEPAL, 100 nM yeast tRNA, 50 nM total aptamers, 37 C, 30 min; Li+ variant: 140 mM LiCl replaces KCl/NaCl", "conditions": "protein: recombinant; tags: His-SUMO tag cleaved; putative two-tier intramolecular G4"}, "FOXL2 wt (recombinant) [3]": {"target": "T3, FOXL2 wt (recombinant)", "experiment": "pull-down competition + HTS; mixed with RF000/RF002 DNA and scr50 RNA; 10 mM HEPES (pH 7.5), 140 mM KCl, 25 mM NaCl, 1 mM MgCl2, 0.1 mM CaCl2, 0.001% IGEPAL, 100 nM yeast tRNA, 50 nM total aptamers, 37 C, 30 min; Li+ variant: 140 mM LiCl replaces KCl/NaCl", "conditions": "protein: recombinant; tags: His-SUMO tag cleaved; putative two-tier intramolecular G4"}, "FOXL2 C134W (mutFOXL2) [4]": {"target": "T4, FOXL2 C134W (mutFOXL2)", "experiment": "pull-down competition + HTS; K+/Na+ buffer; basically absent; 10 mM HEPES (pH 7.5), 140 mM KCl, 25 mM NaCl, 1 mM MgCl2, 0.1 mM CaCl2, 0.001% IGEPAL, 100 nM yeast tRNA, 50 nM total aptamers, 37 C, 30 min; Li+ variant: 140 mM LiCl replaces KCl/NaCl", "conditions": "protein: recombinant; tags: His-SUMO tag cleaved; unable to fold into G4"}, "FOXL2 wt (recombinant) [5]": {"target": "T3, FOXL2 wt (recombinant)", "experiment": "pull-down competition + HTS; K+/Na+ buffer; basically absent; 10 mM HEPES (pH 7.5), 140 mM KCl, 25 mM NaCl, 1 mM MgCl2, 0.1 mM CaCl2, 0.001% IGEPAL, 100 nM yeast tRNA, 50 nM total aptamers, 37 C, 30 min; Li+ variant: 140 mM LiCl replaces KCl/NaCl", "conditions": "protein: recombinant; tags: His-SUMO tag cleaved; unable to fold into G4"}, "FOXL2 wt (recombinant) [6]": {"target": "T3, FOXL2 wt (recombinant)", "experiment": "pull-down competition + HTS; mixed with mutRF001; 10 mM HEPES (pH 7.5), 140 mM KCl, 25 mM NaCl, 1 mM MgCl2, 0.1 mM CaCl2, 0.001% IGEPAL, 100 nM yeast tRNA, 50 nM total aptamers, 37 C, 30 min; Li+ variant: 140 mM LiCl replaces KCl/NaCl", "conditions": "protein: recombinant; tags: His-SUMO tag cleaved; putative two-tier intramolecular G4"}, "FOXL2 wt (recombinant) [7]": {"target": "T3, FOXL2 wt (recombinant)", "experiment": "pull-down competition + HTS; K+/Na+ buffer, tRNA competitor; 10 mM HEPES (pH 7.5), 140 mM KCl, 25 mM NaCl, 1 mM MgCl2, 0.1 mM CaCl2, 0.001% IGEPAL, 100 nM yeast tRNA, 50 nM total aptamers, 37 C, 30 min; Li+ variant: 140 mM LiCl replaces KCl/NaCl", "conditions": "protein: recombinant; tags: His-SUMO tag cleaved; putative two-tier intramolecular G4"}}, "data": [{"binder": "scr50 (ssRNA) RNA: GGGAGAGUAUCCGUUGAGGCUGAGGGACACUCGCUGUUUUCGAAAUUACCCUUUAUGCGCGGGUAUUGAACCAAGAUCGGAAGAGCGUCGUGUAGG", "values": [{"measurement": "binding result", "setting": "FOXL2", "value": "no binding"}, {"measurement": "binding result", "setting": "FOXL2 C134W", "value": "no binding"}]}, {"binder": "RF001 (ssRNA) RNA: GGGAGAGUAUCCGUUGAGGCUGACGUCAUUUGGUGGAUGGCGGAAGGAGGCGGAGGACGGGAAAUUCUGGAAAAGAUCGGAAGAGCGUCGUGUAGG", "values": [{"measurement": "binding result", "setting": "FOXL2", "value": "binds"}, {"measurement": "binding result", "setting": "FOXL2 C134W", "value": "binds"}]}, {"binder": "RF000 DNA (ssDNA) DNA: GGGAGAGTATCCGTTGAGGCTGAGAGGTATTAAGAGGCGGAGGCGGAAGGATGGCGGAGGACCGACAGAGAAGAGATCGGAAGAGCGTCGTGTAGG", "values": [{"measurement": "binding result", "setting": "FOXL2", "value": "no binding"}]}, {"binder": "RF000 (ssRNA) RNA: GGGAGAGUAUCCGUUGAGGCUGAGAGGUAUUAAGAGGCGGAGGCGGAAGGAUGGCGGAGGACCGACAGAGAAGAGAUCGGAAGAGCGUCGUGUAGG", "values": [{"measurement": "binding result", "setting": "FOXL2", "value": "binds"}, {"measurement": "binding result", "setting": "FOXL2 C134W", "value": "binds"}]}, {"binder": "mutRF001 (ssRNA) RNA: GGGAGAGUAUCCGUUGAGGCUGACGUCAUUUGAGUGAGUGAGCGAGAGAGAGUGCGUGAGAGACGAGAGCGUGAGAUCGGAAGAGCGUCGUGUAGG", "values": [{"measurement": "binding result", "setting": "FOXL2", "value": "no binding"}]}, {"binder": "RF002 DNA (ssDNA) DNA: GGGAGAGTATCCGTTGAGGCTGATCGGACTTTGGTGGTTGGAGGACGGATGGACGGAGGTTTATTAGGCTCGCAGATCGGAAGAGCGTCGTGTAGG", "values": [{"measurement": "binding result", "setting": "FOXL2", "value": "no binding"}]}, {"binder": "UCGGACUUUGGUGGUUGGAGGACGGAUGGACGGAGGUUUAUUAGGCUCGC (structured_RNA)", "note": "[RF002 RNA]", "values": [{"measurement": "binding result", "setting": "FOXL2 wt (recombinant) [1]", "value": "binds"}, {"measurement": "binding result", "setting": "FOXL2 C134W (mutFOXL2) [2]", "value": "binds"}]}, {"binder": "RF004 (ssRNA) RNA: GGGAGAGUAUCCGUUGAGGCUGAAUCUGCGACUGGCUGGAGGUGGACGGAUGGCUGGAGGCGAAAUUGGCUUAAGAUCGGAAGAGCGUCGUGUAGG", "values": [{"measurement": "binding result", "setting": "FOXL2", "value": "binds"}, {"measurement": "binding result", "setting": "FOXL2 C134W", "value": "binds"}]}, {"binder": "RF004 DNA (ssDNA) DNA: GGGAGAGTATCCGTTGAGGCTGAATCTGCGACTGGCTGGAGGTGGACGGATGGCTGGAGGCGAAATTGGCTTAAGATCGGAAGAGCGTCGTGTAGG", "values": [{"measurement": "binding result", "setting": "FOXL2", "value": "no binding"}]}, {"binder": "AUCUGCGACUGGCUGGAGGUGGACGGAUGGCUGGAGGCGAAAUUGGCUUA (structured_RNA)", "note": "[RF004 RNA]", "values": [{"measurement": "binding result", "setting": "FOXL2 wt (recombinant) [3]", "value": "binds"}, {"measurement": "binding result", "setting": "FOXL2 C134W (mutFOXL2) [2]", "value": "binds"}]}, {"binder": "RF002 (ssRNA) RNA: GGGAGAGUAUCCGUUGAGGCUGAUCGGACUUUGGUGGUUGGAGGACGGAUGGACGGAGGUUUAUUAGGCUCGCAGAUCGGAAGAGCGUCGUGUAGG", "values": [{"measurement": "binding result", "setting": "FOXL2", "value": "binds"}, {"measurement": "binding result", "setting": "FOXL2 C134W", "value": "binds"}]}, {"binder": "GGGACACUCGCUGUUUUCGAAAUUACCCUUUAUGCGCGGGUAUUGAACCA (ssRNA)", "note": "[scr50 RNA]", "values": [{"measurement": "binding result", "setting": "FOXL2 C134W (mutFOXL2) [4]", "value": "no binding"}, {"measurement": "binding result", "setting": "FOXL2 wt (recombinant) [5]", "value": "no binding"}]}, {"binder": "RF001 DNA (ssDNA) DNA: GGGAGAGTATCCGTTGAGGCTGACGTCATTTGGTGGATGGCGGAAGGAGGCGGAGGACGGGAAATTCTGGAAAAGATCGGAAGAGCGTCGTGTAGG", "values": [{"measurement": "binding result", "setting": "FOXL2", "value": "no binding"}]}, {"binder": "CGUCAUUUGGUGGAUGGCGGAAGGAGGCGGAGGACGGGAAAUUCUGGAAA (structured_RNA)", "note": "[RF001 RNA]", "values": [{"measurement": "binding result", "setting": "FOXL2 C134W (mutFOXL2) [2]", "value": "binds"}, {"measurement": "binding signal", "setting": "FOXL2 wt (recombinant) [6]", "value": "> 10 fold enrichment RF001/mutRF001 vs no-protein control"}]}, {"binder": "GAGGUAUUAAGAGGCGGAGGCGGAAGGAUGGCGGAGGACCGACAGAGAAG (structured_RNA)", "note": "[RF000 RNA]", "values": [{"measurement": "binding result", "setting": "FOXL2 C134W (mutFOXL2) [2]", "value": "binds"}, {"measurement": "binding result", "setting": "FOXL2 wt (recombinant) [7]", "value": "binds"}]}]}
